According to the RNAGym collection of RNA variant scans (doi:10.7554/elife.80360):

B1: HDV Ribozyme (parent)
chain: GGCCGGCAUGGUCCCAGCCUCCUCGCUGGCGCCGGCUGGGCAACAUUCCGAGGGGACCGUCCCCUCGGUAAUGGCGAAUGGGACCCA

Variants of: B1
Experiment: self-cleavage, relative activity (ratio to wild type); higher = more cleavage; co-transcriptional

Question: With G34C A71U as the variant, how does the self-cleavage read?
Answer: Its self-cleavage is 0.095.

Question: Which self-cleavage does the source give for G34C G40A here?
Answer: The self-cleavage was 0.354.

Question: Which self-cleavage does the source give for G34C G40C here?
Answer: The self-cleavage was 0.113.

Question: For G34U G76U, which self-cleavage is on record?
Answer: Its self-cleavage is 0.132.

Question: Which self-cleavage does the source give for G34C A78U here?
Answer: Its self-cleavage is 0.0475.

Question: For G34C G73U, which self-cleavage is on record?
Answer: Its self-cleavage is 0.0627.

Question: Which self-cleavage does the source give for C33U G52U here?
Answer: Its self-cleavage is 0.747.

Question: For C33U G52A, which self-cleavage is on record?
Answer: The self-cleavage was 0.71.

Question: Which self-cleavage does the source give for G34U C57A here?
Answer: Its self-cleavage is 0.114.

Question: Which self-cleavage does the source give for G34U G74U here?
Answer: The self-cleavage was 0.133.

Question: With G34U G74A as the variant, how does the self-cleavage read?
Answer: The self-cleavage was 0.0821.

Question: With G35C U47C as the variant, how does the self-cleavage read?
Answer: The self-cleavage was 0.237.

Question: Which self-cleavage does the source give for G35C U47G here?
Answer: The self-cleavage was 0.0923.

Question: For C33A G53C, which self-cleavage is on record?
Answer: Its self-cleavage is 0.332.

Question: Which self-cleavage does the source give for G34A A83G here?
Answer: Its self-cleavage is 0.0817.

Question: With G34A A83C as the variant, how does the self-cleavage read?
Answer: Its self-cleavage is 0.203.

Question: Which self-cleavage does the source give for G35A G54A here?
Answer: Its self-cleavage is 0.349.

Question: For G34A A43G, which self-cleavage is on record?
Answer: The self-cleavage was 0.125.

Question: For G35U C49G, which self-cleavage is on record?
Answer: The self-cleavage was 0.325.

Question: For G34A G50C, which self-cleavage is on record?
Answer: Its self-cleavage is 0.267.

Question: With G34A G55C as the variant, how does the self-cleavage read?
Answer: The self-cleavage was 0.141.

Question: With C33U U69A as the variant, how does the self-cleavage read?
Answer: The self-cleavage was 0.898.

Question: With G35C G74C as the variant, how does the self-cleavage read?
Answer: The self-cleavage was 0.17.

Question: Which self-cleavage does the source give for C33U G38A here?
Answer: Its self-cleavage is 0.172.

Question: With C33G G54A as the variant, how does the self-cleavage read?
Answer: Its self-cleavage is 0.332.

Question: Which self-cleavage does the source give for G35U A42G here?
Answer: The self-cleavage was 0.17.

Question: For G35U A42U, which self-cleavage is on record?
Answer: The self-cleavage was 0.246.

Question: Which self-cleavage does the source give for G35C G80A here?
Answer: Its self-cleavage is 0.212.

Question: Which self-cleavage does the source give for G35C G80C here?
Answer: The self-cleavage was 0.0992.

Question: With G35C G80U as the variant, how does the self-cleavage read?
Answer: The self-cleavage was 0.043.

Question: For G34C G50C, which self-cleavage is on record?
Answer: Its self-cleavage is 0.288.

Question: Which self-cleavage does the source give for C33U A51G here?
Answer: The self-cleavage was 1.01.

Question: For C33A G34U, which self-cleavage is on record?
Answer: The self-cleavage was 0.0712.

Question: With G35A C49G as the variant, how does the self-cleavage read?
Answer: The self-cleavage was 0.425.

Question: Which self-cleavage does the source give for G35A U65A here?
Answer: The self-cleavage was 0.61.

Question: Which self-cleavage does the source give for C33U C63A here?
Answer: Its self-cleavage is 0.716.

Question: For G35C G52A, which self-cleavage is on record?
Answer: Its self-cleavage is 0.233.

Question: Which self-cleavage does the source give for G35C G52U here?
Answer: Its self-cleavage is 0.318.

Question: Which self-cleavage does the source give for G35C G52C here?
Answer: Its self-cleavage is 0.128.

Question: For C33G U79G, which self-cleavage is on record?
Answer: Its self-cleavage is 0.0665.

Question: With G34A A70G as the variant, how does the self-cleavage read?
Answer: Its self-cleavage is 0.233.

Question: With G35C A78C as the variant, how does the self-cleavage read?
Answer: The self-cleavage was 0.0519.

Question: With G34A C48A as the variant, how does the self-cleavage read?
Answer: The self-cleavage was 0.259.

Question: Which self-cleavage does the source give for G35C C86A here?
Answer: Its self-cleavage is 0.212.

Question: Which self-cleavage does the source give for G34A C75U here?
Answer: Its self-cleavage is 0.086.

Question: With G34A G74A as the variant, how does the self-cleavage read?
Answer: Its self-cleavage is 0.0852.

Question: For G34A G74U, which self-cleavage is on record?
Answer: Its self-cleavage is 0.0875.

Question: For G34U U46C, which self-cleavage is on record?
Answer: The self-cleavage was 0.161.

Question: Which self-cleavage does the source give for G34U U46G here?
Answer: Its self-cleavage is 0.196.

Question: With C33U C85G as the variant, how does the self-cleavage read?
Answer: The self-cleavage was 0.494.

Question: Which self-cleavage does the source give for C33U A83C here?
Answer: The self-cleavage was 0.242.

Question: For G35C A56C, which self-cleavage is on record?
Answer: The self-cleavage was 0.302.

Question: With G34C U47G as the variant, how does the self-cleavage read?
Answer: The self-cleavage was 0.133.

Question: Which self-cleavage does the source give for G34C U47A here?
Answer: The self-cleavage was 0.161.

Question: Which self-cleavage does the source give for G35C A45U here?
Answer: Its self-cleavage is 0.122.

Question: With G35C A45C as the variant, how does the self-cleavage read?
Answer: Its self-cleavage is 0.

Question: With G35C C84A as the variant, how does the self-cleavage read?
Answer: The self-cleavage was 0.271.

Question: For G35C C84G, which self-cleavage is on record?
Answer: The self-cleavage was 0.116.

Question: Which self-cleavage does the source give for C33A G55A here?
Answer: The self-cleavage was 0.159.

Question: With G35C G38U as the variant, how does the self-cleavage read?
Answer: The self-cleavage was 0.0875.

Question: Which self-cleavage does the source give for G34C G39C here?
Answer: The self-cleavage was 0.0554.

Question: Which self-cleavage does the source give for G34C G39A here?
Answer: The self-cleavage was 0.0536.

Question: Which self-cleavage does the source give for C33U C66A here?
Answer: Its self-cleavage is 0.774.

Question: Which self-cleavage does the source give for C33U C66G here?
Answer: Its self-cleavage is 0.946.

Question: For G34C G68U, which self-cleavage is on record?
Answer: Its self-cleavage is 0.199.

Question: With C33A U69A as the variant, how does the self-cleavage read?
Answer: The self-cleavage was 0.325.

Question: For G34C A45C, which self-cleavage is on record?
Answer: Its self-cleavage is 0.107.

Question: For G34C A45U, which self-cleavage is on record?
Answer: The self-cleavage was 0.0378.

Question: With G35A G53U as the variant, how does the self-cleavage read?
Answer: The self-cleavage was 0.736.

Question: With C33G U69G as the variant, how does the self-cleavage read?
Answer: The self-cleavage was 0.123.

Question: With G34A C62A as the variant, how does the self-cleavage read?
Answer: The self-cleavage was 0.0692.

Question: For G34A C62U, which self-cleavage is on record?
Answer: Its self-cleavage is 0.106.

Question: With G35A C62A as the variant, how does the self-cleavage read?
Answer: Its self-cleavage is 0.526.

Question: For G34C A43G, which self-cleavage is on record?
Answer: Its self-cleavage is 0.

Question: For C33G A43U, which self-cleavage is on record?
Answer: The self-cleavage was 0.175.

Question: For C33G U72C, which self-cleavage is on record?
Answer: Its self-cleavage is 0.115.

Question: Which self-cleavage does the source give for C33U G59C here?
Answer: Its self-cleavage is 1.01.

Question: For G35C G68A, which self-cleavage is on record?
Answer: Its self-cleavage is 0.17.

Question: Which self-cleavage does the source give for G34A G76C here?
Answer: Its self-cleavage is 0.217.

Question: With C33G G82A as the variant, how does the self-cleavage read?
Answer: Its self-cleavage is 0.

Question: Which self-cleavage does the source give for G34C C44A here?
Answer: The self-cleavage was 0.0831.

Question: For C33U G73U, which self-cleavage is on record?
Answer: The self-cleavage was 0.391.

Question: With C33U G73A as the variant, how does the self-cleavage read?
Answer: Its self-cleavage is 0.554.
